US20230357367A1
Like-named read-outs stand apart in the source and are kept apart here.

Experiments:
Experiment in all cases: cell-based or functional assay
[1] = biological target: spike (SARS-CoV-2, BA.4/5) (SARS-CoV-2)
[2] = biological target: spike (SARS-CoV-2, BA.1) (SARS-CoV-2)
[3] = biological target: spike (SARS-CoV-2, BA.1.1) (SARS-CoV-2)
[4] = biological target: spike (SARS-CoV-2, BQ.1) (SARS-CoV-2)
[5] = biological target: spike (SARS-CoV-2, BA.2.12.1) (SARS-CoV-2)
[6] = biological target: spike (SARS-CoV-2, B.1.617.2, Delta) (SARS-CoV-2)
[7] = biological target: spike (SARS-CoV-2, BF.7) (SARS-CoV-2)
[8] = biological target: spike (SARS-CoV-2, BN.1) (SARS-CoV-2)
[9] = biological target: spike (SARS-CoV-2, BA.2) (SARS-CoV-2)
[10] = biological target: spike (SARS-CoV-2, XBB.1.5) (SARS-CoV-2)
[11] = biological target: spike (SARS-CoV-2, BF.7.14) (SARS-CoV-2)
[12] = biological target: spike (SARS-CoV-2, BA.2.75.2) (SARS-CoV-2)
[13] = biological target: spike (SARS-CoV-2, BA.2.75) (SARS-CoV-2)
[14] = biological target: spike (SARS-CoV-2, BA.2.3.20) (SARS-CoV-2)
[15] = biological target: spike (SARS-CoV-2, BA.4.6) (SARS-CoV-2)
[16] = biological target: spike (SARS-CoV-2, XBB.1) (SARS-CoV-2)
[17] = biological target: spike (SARS-CoV-2, BQ.1.1) (SARS-CoV-2)
[18] = biological target: spike (SARS-CoV-2, CH.1.1) (SARS-CoV-2)
[19] = biological target: spike (SARS-CoV-2, B.1.617.2, Delta) (SARS-CoV-2); remark: listed apart in the source
[20] = biological target: spike (SARS-CoV-2, B.1.617.2, Delta) (SARS-CoV-2); remark: listed apart in the source
[21] = biological target: spike (SARS-CoV-2, B.1.617.2, Delta) (SARS-CoV-2); remark: listed apart in the source
[22] = biological target: spike (SARS-CoV-2, B.1.617.2, Delta) (SARS-CoV-2); remark: listed apart in the source
[23] = biological target: spike (SARS-CoV-2, XBB.1.5) (SARS-CoV-2); remark: listed apart in the source
[24] = biological target: spike (SARS-CoV-2, BQ.1.1) (SARS-CoV-2); remark: listed apart in the source
[25] = biological target: spike (SARS-CoV-2, XBB.1.5) (SARS-CoV-2); remark: listed apart in the source
[26] = biological target: spike (SARS-CoV-2, BQ.1.1) (SARS-CoV-2); remark: listed apart in the source
[27] = biological target: spike (SARS-CoV-2, XBB.1.5) (SARS-CoV-2); remark: listed apart in the source
[28] = biological target: spike (SARS-CoV-2, BQ.1.1) (SARS-CoV-2); remark: listed apart in the source
[29] = biological target: spike (SARS-CoV-2, XBB.1.5) (SARS-CoV-2); remark: listed apart in the source
[30] = biological target: spike (SARS-CoV-2, BQ.1.1) (SARS-CoV-2); remark: listed apart in the source
[31] = biological target: SARS-CoV-2 Omicron BA.1 Spike on virus particles (SARS-CoV-2)
[32] = biological target: SARS-CoV-2 Delta Spike on virus particles (SARS-CoV-2)
[33] = biological target: SARS-CoV-2 Omicron BA.4/5 Spike on pseudovirus (SARS-CoV-2)
[34] = biological target: SARS-CoV-2 Omicron BA.2 Spike on pseudovirus (SARS-CoV-2)
[35] = biological target: SARS-CoV-2 Omicron BA.2.12.1 Spike on pseudovirus (SARS-CoV-2)
[36] = biological target: SARS-CoV-2 Omicron BA.1 Spike on virus particles (SARS-CoV-2); remark: listed apart in the source
[37] = biological target: SARS-CoV-2 Delta Spike on virus particles (SARS-CoV-2); remark: listed apart in the source
[38] = biological target: SARS-CoV-2 Omicron BA.4/5 Spike on pseudovirus (SARS-CoV-2); remark: listed apart in the source
[39] = biological target: SARS-CoV-2 Omicron BA.2 Spike on pseudovirus (SARS-CoV-2); remark: listed apart in the source
[40] = biological target: SARS-CoV-2 Omicron BA.2.12.1 Spike on pseudovirus (SARS-CoV-2); remark: listed apart in the source

bebtelovimab (antibody) was tested, and the EC50, pseudovirus neutralization [1] was 0.073 ng/mL, the EC80, pseudovirus neutralization [1] was 1.2 ng/mL and the EC90, pseudovirus neutralization [1] was 6.4 ng/mL. It also gave an Emax, pseudovirus neutralization (% neutralization) [1] of 99.8, an EC50, pseudovirus neutralization [2] of 0.17 ng/mL and an EC80, pseudovirus neutralization [2] of 1.8 ng/mL. It also gave an EC90, pseudovirus neutralization [2] of 7.2 ng/mL, an Emax, pseudovirus neutralization (% neutralization) [2] of 99.8 and an EC50, pseudovirus neutralization [3] of 0.12 ng/mL. The EC80, pseudovirus neutralization [3] was 1.3 ng/mL, the EC90, pseudovirus neutralization [3] was 5.6 ng/mL and the Emax, pseudovirus neutralization (% neutralization) [3] was 99.9. For the same substance, the Emax, pseudovirus neutralization (% neutralization) [4] was 72.2, the EC50, pseudovirus neutralization [5] was 0.2 ng/mL and the EC80, pseudovirus neutralization [5] was 1.2 ng/mL. It also gave an EC90, pseudovirus neutralization [5] of 3.6 ng/mL, an Emax, pseudovirus neutralization (% neutralization) [5] of 99.9 and an EC50, live virus neutralization [6] of 4.6 ng/mL. For the same substance, the EC50, pseudovirus neutralization [6] was 3.8 ng/mL, the EC50, pseudovirus neutralization, TMPRSS2-Vero E6, with isotype [6] was 1.6 ng/mL and the EC50, pseudovirus neutralization, Vero E6, with isotype [6] was 0.63 ng/mL. The EC80, pseudovirus neutralization [6] was 23 ng/mL, the EC80, pseudovirus neutralization, TMPRSS2-Vero E6, with isotype [6] was 13 ng/mL and the EC80, pseudovirus neutralization, Vero E6, with isotype [6] was 4.2 ng/mL. It also gave an EC90, live virus neutralization [6] of 15.9 ng/mL, an EC90, pseudovirus neutralization [6] of 66 ng/mL and an EC90, pseudovirus neutralization, TMPRSS2-Vero E6, with isotype [6] of 43 ng/mL. The EC90, pseudovirus neutralization, Vero E6, with isotype [6] was 13 ng/mL, the Emax, pseudovirus neutralization (% neutralization) [6] was 99.9 and the Emax, pseudovirus neutralization, TMPRSS2-Vero E6, with isotype (% neutralization) [6] was 99.7. For the same substance, the Emax, pseudovirus neutralization, Vero E6, with isotype (% neutralization) [6] was 99.7, the EC50, pseudovirus neutralization [7] was 0.11 ng/mL and the EC80, pseudovirus neutralization [7] was 1.7 ng/mL. The EC90, pseudovirus neutralization [7] was 8.5 ng/mL, the Emax, pseudovirus neutralization (% neutralization) [7] was 99.8 and the EC50, pseudovirus neutralization [8] was 0.467 ng/mL. It also gave an EC80, pseudovirus neutralization [8] of 5.3 ng/mL, an EC90, pseudovirus neutralization [8] of 22 ng/mL and an Emax, pseudovirus neutralization (% neutralization) [8] of 99.4. It also gave an EC50, pseudovirus neutralization [9] of 0.2 ng/mL, an EC80, pseudovirus neutralization [9] of 1.4 ng/mL and an EC90, pseudovirus neutralization [9] of 4.4 ng/mL. The Emax, pseudovirus neutralization (% neutralization) [9] was 99.9, the Emax, pseudovirus neutralization (% neutralization) [10] was 2.01 and the Emax, pseudovirus neutralization, TMPRSS2-Vero E6, with isotype (% neutralization) [10] was 2.93. It also gave an Emax, pseudovirus neutralization, Vero E6, with isotype (% neutralization) [10] of 4.21, an EC50, pseudovirus neutralization [11] of 0.22 ng/mL and an EC80, pseudovirus neutralization [11] of 1.4 ng/mL. The EC90, pseudovirus neutralization [11] was 4.1 ng/mL, the Emax, pseudovirus neutralization (% neutralization) [11] was 99.8 and the EC50, pseudovirus neutralization [12] was 0.46 ng/mL. The EC80, pseudovirus neutralization [12] was 6.3 ng/mL, the EC90, pseudovirus neutralization [12] was 29 ng/mL and the Emax, pseudovirus neutralization (% neutralization) [12] was 99.5. It also gave an EC50, pseudovirus neutralization [13] of 0.65 ng/mL, an EC80, pseudovirus neutralization [13] of 8.2 ng/mL and an EC90, pseudovirus neutralization [13] of 36 ng/mL. For the same substance, the Emax, pseudovirus neutralization (% neutralization) [13] was 99.5, the EC50, pseudovirus neutralization [14] was 12 ng/mL and the EC80, pseudovirus neutralization [14] was 360 ng/mL. It also gave an EC90, pseudovirus neutralization [14] of 2600 ng/mL, an Emax, pseudovirus neutralization (% neutralization) [14] of 97.9 and an EC50, pseudovirus neutralization [15] of 0.2 ng/mL. For the same substance, the EC80, pseudovirus neutralization [15] was 2.5 ng/mL, the EC90, pseudovirus neutralization [15] was 11 ng/mL and the Emax, pseudovirus neutralization (% neutralization) [15] was 99.6. The Emax, pseudovirus neutralization (% neutralization) [16] was 10.8, the Emax, pseudovirus neutralization (% neutralization) [17] was 53 and the Emax, pseudovirus neutralization, TMPRSS2-Vero E6, with isotype (% neutralization) [17] was 40.5. It also gave an Emax, pseudovirus neutralization, Vero E6, with isotype (% neutralization) [17] of 59.1, an Emax, pseudovirus neutralization (% neutralization) [18] of 5.32 and an EC80, pseudovirus neutralization, Vero E6, with isotype [19] of 3.5 ng/mL. The EC90, pseudovirus neutralization, Vero E6, with isotype [20] was 12 ng/mL, the EC50, pseudovirus neutralization, Vero E6, with isotype [21] was 0.44 ng/mL and the Emax, pseudovirus neutralization, Vero E6, with isotype (% neutralization) [22] was 99.7. For the same substance, the Emax, pseudovirus neutralization, Vero E6, with isotype (% neutralization) [23] was 0.55 and the Emax, pseudovirus neutralization, Vero E6, with isotype (% neutralization) [24] was 55.6.
sotrovimab VH/VL-huIgG1-LS (antibody) gave an EC50, pseudovirus neutralization, Vero E6 [9] of 851 ng/mL, an EC80, pseudovirus neutralization, Vero E6, with isotype [19] of 42 ng/mL and an EC80, pseudovirus neutralization, Vero E6, with isotype [25] of 680 ng/mL. For the same substance, the EC80, pseudovirus neutralization, Vero E6, with isotype [26] was 4400 ng/mL, the EC90, pseudovirus neutralization, Vero E6, with isotype [20] was 110 ng/mL and the EC90, pseudovirus neutralization, Vero E6, with isotype [27] was 1500 ng/mL. The EC90, pseudovirus neutralization, Vero E6, with isotype [28] was 9600 ng/mL, the EC50, pseudovirus neutralization, Vero E6, with isotype [21] was 7.9 ng/mL and the EC50, pseudovirus neutralization, Vero E6, with isotype [29] was 170 ng/mL. It also gave an EC50, pseudovirus neutralization, Vero E6, with isotype [30] of 1200 ng/mL, an Emax, pseudovirus neutralization, Vero E6, with isotype (% neutralization) [22] of 96.9 and an Emax, pseudovirus neutralization, Vero E6, with isotype (% neutralization) [23] of 93.4. The Emax, pseudovirus neutralization, Vero E6, with isotype (% neutralization) [24] was 71.9.
With sotrovimab VH/VL-huIgG1 (antibody) the EC50, pseudovirus neutralization, Vero E6 [9] was 862 ng/mL.
In the case of “Sotrovimab VH/VL (human IgG1 molecule expressing the same variable regions of Sotrovimab) (antibody)”, the % neutralization at 4.5 µg/ml, pseudovirus [31] is reported as 99.4%, the IC50, live virus neutralization [31] is reported as 410 ng/mL and the % neutralization at 4.5 µg/ml, pseudovirus [32] is reported as 101%. The IC50, live virus neutralization [32] was 57.9 ng/mL, the IC50, pseudovirus neutralization [32] was 65 ng/mL and the % neutralization at 4.5 µg/ml, pseudovirus [33] was 60.5%. It also gave an IC50, pseudovirus neutralization [33] of over 4500 ng/mL, a Neutralization - IC50, pseudovirus [33] of 424 ng/mL and a % neutralization at 4.5 µg/ml, pseudovirus [34] of 73.1%. The IC50, pseudovirus neutralization [34] was 704 ng/mL, the % neutralization at 4.5 µg/ml, pseudovirus [35] was 76.9% and the IC50, pseudovirus neutralization [35] was 1200 ng/mL. It also gave an IC50, pseudovirus neutralization [36] of 63.3 ng/mL, an IC50, pseudovirus neutralization [37] of 12.3 ng/mL and an IC50, pseudovirus neutralization [38] of 666 ng/mL. It also gave an IC50, pseudovirus neutralization [39] of 392 ng/mL and an IC50, pseudovirus neutralization [40] of 714 ng/mL.
Work on Bebtelovimab (antibody) yielded a Neutralization - IC50, pseudovirus [33] of 0.3 ng/mL.
sotrovimab VH/VL-hamIgG2a (antibody) showed an EC50, pseudovirus neutralization, Vero E6 [9] of 361 ng/mL.
AZD1061 (antibody) showed a % neutralization at 4.5 µg/ml, pseudovirus [31] of 83.9%, a % neutralization at 4.5 µg/ml, pseudovirus [32] of 100% and a % neutralization at 4.5 µg/ml, pseudovirus [33] of 96.7%. For the same substance, the % neutralization at 4.5 µg/ml, pseudovirus [34] was 99.7%, the % neutralization at 4.5 µg/ml, pseudovirus [35] was 99.8% and the IC50, pseudovirus neutralization [36] was 1220 ng/mL. For the same substance, the IC50, pseudovirus neutralization [37] was 5.9 ng/mL, the IC50, pseudovirus neutralization [38] was 41.2 ng/mL and the IC50, pseudovirus neutralization [39] was 5.8 ng/mL. For the same substance, the IC50, pseudovirus neutralization [40] was 5.1 ng/mL.
For AZD8895 (antibody), the % neutralization at 4.5 µg/ml, pseudovirus [31] was 96.5%, the % neutralization at 4.5 µg/ml, pseudovirus [32] was 102% and the % neutralization at 4.5 µg/ml, pseudovirus [33] was 25.8%. For the same substance, the % neutralization at 4.5 µg/ml, pseudovirus [34] was 93.9%, the % neutralization at 4.5 µg/ml, pseudovirus [35] was 94.2% and the IC50, pseudovirus neutralization [36] was 1160 ng/mL. It also gave an IC50, pseudovirus neutralization [37] of 0.5 ng/mL, an IC50, pseudovirus neutralization [39] of 608 ng/mL and an IC50, pseudovirus neutralization [40] of 415 ng/mL.
